Measured values as given in paper PMC10570035.
Where two headings read alike, the source gives them in different places. Blank lines part the entries; values can stand above or below the substance they belong to.

Columns and labels:
[1] = molecular target: 40S ribosomal subunit (rabbit reticulocyte lysate) (rabbit (endogenous in rabbit reticulocyte lysate)) (UniProt G1TM55)
[2] = molecular target: 40S ribosomal subunit (rabbit reticulocyte lysate) (rabbit (endogenous in rabbit reticulocyte lysate)) (UniProt G1TM55); remark: listed apart in the source
[3] = molecular target: 40S ribosomal subunit (rabbit reticulocyte lysate) (rabbit (endogenous in rabbit reticulocyte lysate)) (UniProt G1TM55); remark: listed apart in the source
[4] = molecular target: 40S ribosomal subunit (rabbit reticulocyte lysate) (rabbit (endogenous in rabbit reticulocyte lysate)) (UniProt G1TM55); remark: listed apart in the source

in vitro translation of nLuc mRNA in 20% RRL, titration of recombinant protein (0-3.4 μM); IC50 of inhibition of translation [1]: 190 nM
Substance: MBP-eIF2A-His6 (from UniProt Q9BY44-1 1-585) (natural protein)

Substance: MBP-eIF2A-His6-FLAG (from UniProt Q9BY44-1 1-585) (natural protein)
in vitro translation of nLuc mRNA in 20% RRL, titration of recombinant protein (0-3.4 μM); IC50 of inhibition of translation [2]: 370 nM | in vitro translation of CrPV IGR IRES nLuc mRNA in RRL, titration (0-3.4 μM); IC50 of inhibition of translation [3]: 630 nM | in vitro translation of EMCV IRES nLuc mRNA in RRL, titration (0-3.4 μM); IC50 of inhibition of translation [3]: 690 nM | in vitro translation of HCV IRES nLuc mRNA in RRL, titration (0-3.4 μM); IC50 of inhibition of translation [3]: 490 nM | in vitro translation of PV IRES nLuc mRNA in RRL, titration (0-3.4 μM); IC50 of inhibition of translation [3]: 840 nM

in vitro translation of nLuc mRNA in 20% RRL, titration of recombinant protein (0-3.4 μM); IC50 of inhibition of translation [4]: 130 nM
Substance: tag-less eIF2A (from UniProt Q9BY44-1 1-585) (natural protein)
